Measured values published in the RNAGym collection of RNA variant scans (doi:10.1073/pnas.2313332121).
Fewer inactive variants are shown than the library holds.

B1: TPR 5TU (parent)
chain: GGAUCUUCUCGAUCUAACAAAAAAGACAAAUCUGCCACAAAGCUUGAGAGCAUCUUCGGAUGCAGAGGCGGCAGCCUUCGGUGGCGCGAUAGCGCCAACGUUCUCAACUAUGACACGCAAAACGCGUGCUCCGUUGAAUGGAGUUUAUCAUG

Variants of: B1
Assay: polymerase ribozyme fitness, log enrichment relative to wild type (log ratio); higher = more active; in vitro selection for triplet polymerase activity
Summary of the method: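 The heterodimeric triplet polymerase ribozyme's subunits were each mutagenized into PCR-built libraries and transcribed. Every library was selected once, in triplicate, by annealing with a biotinylated primer, the partner subunit and triplets, incubating frozen at −7 °C, gel-excising extended constructs, capturing on streptavidin beads and running RT-PCR. Input and output libraries were Illumina-sequenced, with genotypes kept only at ≥10 input reads and ≥1 read per output. Fitness, from inverse-variance-weighted replicate averages, is the base-2 logarithm of genotype enrichment over wild-type enrichment.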

| Variant | polymerase ribozyme fitness (log ratio) |
| --- | --- |
| GGAUCUUCUCGAUCUAACAAAAAAGACAAAUCUGCCACAAAGCUUGAGAGCAUCUUUGGAUGUAUAGGCGGCAGCCUUCGGUGGCGCAAUAGCGCCAACGUUCUCAACUAUGACACGCAAAACGCGUGCUCCGUUGAUUGGAGUUUAUCAUG | ≤ -4.2 |
| GGAUCUUCUCGAUCUAACAAAAAAGACAAAUCUGCCUCAAAGCUUGAGAGCAUCUUCGGAUGCAGAGGCGGCAGCCUUCGGUGGCGCGAUAGCGCCAACGGUCUCAACUAUGACACGCAAAACGCGUGCUCCGGUGAAUGAAGUUUAUCAUG | -4.08 |
| GGAUGUUCUCGAUCUAACAAAAAAGACAAAUCUGCCACAAAGCUUGAGAGCAUCUUCGGAUGCAGAGGCGGCAGCCUUCGGUGGCGAGAUAGCGCCAACGUUCUCAACUAUGACACGCAAAACGCGUGCUCCGUUGAAUGGAGUUUAUCAUG | ≤ -4.2 |
| GGAUCUUCUCGCUCUAACAAAAAAGAUAAAUCUUCCACAAAGCUUGAGAGCAUCUUCGGAUGUAGAGGCGGCAGCCUUCGGUGGCGCGAUAGAGCCAACGUUCUCAACUAUGACACGCAAAACGCGUGCUCCGUUGAAUGGAGUUUAUCAUG | -4.1 |
| GGUUCUUCUCGAUCUAGCAAAAAAGACAAAUCUGCCACAAAGCUUGAGCGCAUCUUCGGAUGCAGAGGCGGCAGCCUUCGGUGGCGCGAUAGAGCCAACGUUCACAACUAUGACACGCCAAACGCGUGCUCUGUUGAAUGCAGUGUAUCAUG | ≤ -4.2 |
| GGAUCUUCUCGAUCUAACAAAAAAGACAAAUCUGCCACAAAGCUUGAGAGCAUCUUCGGAUGCACAGGCGGCAGCCUUCGGUGGCGCUAUAGCGCCAACGUUCUCUACUAUGACACGCAAAACGCGUGCUCCGUUGAAUCGAGUUUAUCAUG | ≤ -4.2 |
| GGAUCUUCUCGAUCUAACAAAAAAGACAAAUCUGCCACAAAGCUUGAGAGCAUCUUCGGAUGCAGAGGCGGCAGCCCUCGGUGGCGGGAUAGCGCCAACGUUCUCAACUAUGACACGCAAAACGCGUGCUCCGUUGAAUGGGGUUUAUCAUG | ≤ -4.2 |
| GGAUCUUUUCGAUCUAAGAAAAAAGACAAAUCUGACACAAAGCUUGAGAGCAACUUCCGAUGCAGAGGCGGCAGCCUUCGGUGGCGCGAUAGCGCCAACGUUCUCAACUAUGACACGCAAAACGCGUGCUCCGUUGAAUGGAGUUUAUCAUG | ≤ -4.2 |
| GGAUCUUCUCGAUCUAACAAAAAAGACAAAUCUGCCACAAAGCUUGAGAGCAUCUUCCGAUGCAGAGGCGGCAGCCUUCGGUGGUGCGGUAGCGCCAACGUUCUCAACUAUGACACGCAAAACGCGUGCUCCGUUAAAUGGAGUUUAUCAUG | -3.96 |
| GGAUCUUCUCGAUCUAACAAUAAAGACAAAUCUGCCACAAAGCUUGAGAGCAUCUUCGGAUGCAGAGGCGGCAGCCUUCGGUGGCGCGAUAGCGCCAACGUUCCCAACUAUGACACGCAAAACGCGUGCUCCGUUGAAUGGAGUUUAUCAUG | 0.212 |
| GGAUCGUCUCGAUCUAACAUAAAAGACAAAUCUGCCACAAAGCUUGAGAGCAUCUUCGGAUGCAGAGGCGGCUGCCUUCGGUGGCGCGAUAGCGCCAACGUUCUCAACUAUGACACGCAAAACGCGUGCUCCGCUGAAUGGAGUGUAUCAUG | -3.22 |
| GGAUCUUCUCGAUCUAACAAAAAAGACAAAUCUGCCACAAAGCUUGAGAGCAUCUUCGGAUGCAGAGGCGGCAGCCUGCGGUGGCGCGAGAGCGCCAACGUUCUCAACUAUGACACGCAAAACGCGUGCUACGUUGAAUGGAGUUUAUCAUG | ≤ -4.2 |
| GGAUCUUCUCGAUCUAACAAAAAAGACAAAUCUGCCACAAAGCUUGAGAGCAUCUUCGGAUGCAGAGGCGGCAGCCUUCGGUGGCGCGAUAGCGACAACGUUCUCAAGUAUGACACGCAAAACGCGUGCUCCGUUGAAUGGAGUUUAUCAUG | ≤ -4.2 |
| GGAUCUUCUCGAUCUAACAAAAAAGACAAAUCUGCCACAAAGCUUGCGAGCAUCUUCGGAUGCAGAGGCGGCAGCCUUCGGUGGCGCGAUAGCGUCAACGUUCUCAACUAUGACACGCAAAACGCGUGCUCCGUUGAAUGGAGUUUAUCAUG | 0.141 |
| GGAUCUUCUCGCUCUAACAAAAAAGACAAAUCUGCCACAAAGCUUGAGAGCAUCUUCGGAUGCAGAGGCGGCAGCCUUCGGUGGCGCGAUAGUGCCAACGUUCUCAACUAUGACACGCAAAACGCGUGCUCCGUUGAAUGGAGUUUAUCAUG | -2.17 |
| GGAUCUUCUCGUUCUAACAAAAAAGACAAAUCUGCCACAAAGCUUGAGAGCAUCUUCGGAUGCAGAGGCGGCAGCGUUCGGUGGUGCGAUAGCGCCAACGUUAUCAACUAUGACACGCAAAACGCCUGCUCCGUUGAAUGGAGUGUAUCAUG | ≤ -4.2 |
| GGAUCUUCUCGAUCUAACAAAAAAGACAAUUCUGCCACAAAGCUUGAGAGCAUCGUAGGAUGCAGAGGCGGCAGCCUUCGGUGGCGCGAUAGUGCCAACGUUCUCAACUAUGACACGCAAAACGCGUGCUCCGUUGAAUGGAGUUUAUCAUG | -4.13 |
| GGAUCUUCUCGAUCUAACAAAAAAGACAAAUCUGCCACAAAGCUUGAGAGCAUCUUCGGAUGCAGAGGCGGCAGCCUUCGGUGGCGCGAUAGCGUCAACGGUCUUAACUAUGACACGCAAAACGUGUGCUCCGUUGAAUGGUGUUUAUCAUG | ≤ -4.2 |
| GGAUCUUCUCGAUCUAACAAAAAAGACAAAUCUGCCACAAAGCUUGAGAGCAUGUUCGGACGCAGAGGCGGCAGCCUUCGGUGUCGUAAUAGCGCCAACGUUCUCAACUAUGACACGCUAAACGCGUGCUCCGUUGAAUGGAGUUUAUCAUG | ≤ -4.2 |

| Variant | polymerase ribozyme fitness (log ratio) |
| --- | --- |
| GGAUCUUCUCGAUCUAACAAAAAAGACAAAUCUGCCACAAAGAUUGAGAGCAACAUCGGAUGCAGAGGCGGCAACAUUCGGUGGCGCUAUAGCGCCAACGUUCUCAACUAUGACACGCAAAACGCGUGCUCCGUUGAAUGGGGUUUAUCAUG | ≤ -4.2 |
| GGAUCUUCUCGAUCUAACAAAAAAGACAAAUCUGCCACAAAGCUUGAGAGUAUCUUCGGAUGCAGAGGCGGCAGCCUUCGGUGGCGCGAUAGCCCCAACGUUCUCAACUAUGACACGCAAAACGCGUGCUCCGUUGAAUGGAGUUUAUCAUG | -0.484 |
| GGCUCUUCUCGAUCUAACAAAAAAGACAAAUCUGCCACAAAGCUUGAGAGCAUCUUCGGAUGCAGAGGCGGCAGCCUUCGGUGGUGCGAUAGCGCCAACGUUCUCAACUAUGACACGCAAAACGCGUGCUCCGUUGAAUGGAGUUUAUCAUG | -1.46 |
| GGAUCUUCUCGAUCUAACAAAAAAGACAAAUCUGCCACAAAGCUUGAGAGCAUCUUCGGAUGCAGAGGCGGCAGCCUUCGGUGGCGCGAUAGCGCCAACGUUCUCAACUAUGGCACGCAAAACGCGUGCUCCGAUGAAUGGAGUUUAUCAUG | ≤ -4.2 |
| GGAUCUUCUCGAUCUAACAAAAACGACAAAUCUGCCACAAAGCUUGAGAGCAUCUUCGGAUGCAGAGGCGGCAGCCUUCGGUGGCCCGAUAGCGCCAACGUUCUCAACUAUGACACGCAAAACGCGUGCUCCGUUGAAUGGAAUUUACCAUG | ≤ -4.2 |
| GGAUCUUCUCGAUCUAACAAAAAAGACAAAUCUGCCACAAAGCUUGAGUGCAUCUUCCGAUGCAGAGGCGGCAGCCUUCGGUGGCGCGAUAGCGCCAACGUUCUCAACUAUGACACGCAAAACGCGUGCUCCGUUGAAUGGAGUUUAUCAUG | -0.846 |
| GGAUCUUCUCGAUCUAACAAAAAAGACAAAUCUGCCACAAAGCUUGAGAGCAUCUUCGAAUGCAGAGGCGGCAGCCUUCGGUGGCGCCAUAGCGCCAACGUUCUCAACUAUGACACGCAAAACGCGUGCUCCGUUGAAUGGAGUUUAUCAUG | -3.73 |
| GGAUCUUCUCGAUCUAACAAAAAAGACAAAUCUGCCACAAAGCUUGAGAGCAUCUUCGGAUGCAGAGGCGGCAGCCUUCGGUGGCACGAUAGCGCCAAGGUUCUCAACUAUGACACGCAAAACGCGUGCUCCGUUGAAUGGAGUUUAUCAUG | -3.06 |
| GGAUCUUCUCGAUCUAACAAAAAAGACAAAUCUGCCACAAAGCUUGAGAGCAUCUUCGGAUGCAGUGGCGGCAGCCUUCGGUGGCGCAAUAGCGCCAACGUUCUCAACUAUGACACGCAAAACGCGUGCUCCGUUGAAUGGAGUGUACCCUG | ≤ -4.2 |
| GGAUCUUCUGGAUCUAACAAAAAAGACAAAUCUGCCACAAAGCGUGAGAGCAUCUGUGGAUGCAGCGGCGGCAGCCUUCGGUGGCGUGAUAGCGCCAACGUUCUCGACUAUGACACGCAAAACGCGUGCUCCGUUGAAUGGUGUUUAUCAUG | ≤ -4.2 |
| GGAUCUUCUCGAUCUAACAAAAAAGACAAAUCUACCACAAGGCUUGAGAGCAUCUUCGGAUGCAGAGGCGGCAGCCUUCGGUGGCGCGAUAGCGCCAACGUUCUCAACUAUGACACGCAUAACGCGUGCUCCGUUGAAUGGAGUUUAUCAUG | -1.2 |
| GGAUCUUCUCGAUCUAACAAAAAAGACAAAUCUGCCACAAAGCUUGAGAGCAUCUUCGGAUGCAGAGGCGGCAGCCUUCGGUGGCGAGAUAGAGGCAACGUUCUCAACUAUGACACGCAAUACGCGGGCUCCGUUGAAUAGAGUUUAUCAUG | ≤ -4.2 |
| GGAUCUUCUCGAUCUAACAAGAAAGACAAAUCUGCCACAAAGCUUGAGAGCAUCUUCGGAUGCAGAGGCGGCAGCCAUCGGUGGCGCGAUGGCGCCAACGUUCUCAACUAUGACACGCAAAACGCGUGCUCCGUUGAAUGGAGUUUAUCAUG | ≤ -4.2 |
| GGAUCUUCUCGAUCUAACAAAAAAGACAAAUCGGCCACAAAGCUUGAGAGCAUCUUCGGAUGCAGAGGCGGCAGCCUUCGGUGGCGCGAUAGCGGCAACGUUCUCAACUAUGACAAGCAAAACGCGUGCUCCGUUGAAUGGAGUUUAUCAUG | -4.15 |
| GGAUCUUCUCGAUCUAACAAAAAAGACAAAUCUGCCACAAAGCUUGAGAGCAUCUUCCGAUGCAGAGGCGGCAGCCUUCGGUGGCGCGAUAGCGCCAACGUUCUCAACUAUGACACGCAAAACGCGUGCUCCGUUGAAUGGAGUUUAUCAUA | -2.01 |
| GGAUCUUCUCGAUCUAACAAAAAAGACAAAUCUGCCACAAAGCUUGAGAGCAUCUUCGGAUGCAGAGGUGGCAGCCUUCGGUGGGGCGAUAGCGCCAACGUUCUCAACUAUGACACGCAAAACGCGUGCUCCGUUGAAUGGAGUUUAUCAUG | -2.16 |
| GGAUCUUCUCGAUCUAACAAAAAAGACAAAUCUGCCACAAGGCUUGAGAGCAUCUUCGAAAGCAGAGGCGGCAGCCUUCGGUGGCGCGAUAGCGCCAACGUUCUCAACUAUGACACGCAAAACGCGUGCUCCGUUGAAUGGAGUUUAUCAUG | -0.462 |
| GGAUCUUCUCGAUCUAACAAAAAAGACAAAUCUGCCACAAAGCUUGAGGGCAUCUUCGGAUGCAGAGGCGGCAGCCUUCGGUGACGCGAUAGCGCCAACGUUCUCAACUAUGACACGCAAAACGCGUGCUCCGUUGAAUGGAGUUUAUCAUG | -0.52 |
| GGAUCUUCUCGAUCUAACAAAAAAGACAAAUCUGCCACAAAGCUUGAGAGCAUCGUCGGAUGCAGAGGCGGCAGCCUUCGGUGGCGCGAUAGCACCAUCGUUCUCAACUAUGACACGAAAAACGCGUGCUCCGUUGAAUGGAGUUUAUCAUG | -1.56 |
